For one data set, the target named is T1, streptavidin (SA chip) (UniProt P22629 37-163, limits assumed).
T1 construct: Chip surface of the SPR experiments; also called SA chips; streptavidin-coated chip
Briefly: SPR, Biacore 3000, streptavidin-coated chip. A general note: In SPR one partner is held on a chip, and binding of the other changes the refractive index at the surface.

Data set [1] deals with the molecule itself. Briefly: circular dichroism, concentration dependence of MRE at 222 nm in PBS, fit for the Kd of the dimerization; isolated PF4ZIP, not conjugated to PEG.
Experimental: Samples were equilibrated at the desired temperature for 30 minutes prior to data collection; equilibration was indicated by the absence of further changes in the CD signal at longer equilibration times. All CD spectra were taken in a 1 mm path length quartz cuvette, at wavelengths from 200 to 250 nm. Data points were recorded at every nanometer with a 4.0 s response time. The concentrations of peptide samples were determined via amino acid analysis for calculation of mean residue ellipticities.
The conformation of PF₄ZIP at various concentrations was also monitored via CD. […] The difference between the measured ellipticity and the ellipticity of the unfolded monomer is related to concentration and can be fit to determine the Kd of the dimerization, via standard fitting procedures well-described in the literature.

One may read the Kd as the equilibrium constant for the complex coming apart. Read a low Kd as higher affinity.

Ends that are not written are not given here.

T1 sequence (P22629 37-163 limits assumed): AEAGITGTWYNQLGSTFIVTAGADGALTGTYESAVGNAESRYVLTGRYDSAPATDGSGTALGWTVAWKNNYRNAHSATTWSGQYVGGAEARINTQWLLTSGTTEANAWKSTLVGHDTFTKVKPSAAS
Experimental for streptavidin (SA chip): Surface Plasmon Resonance (SPR). SPR sensorgrams were recorded on a BiaCore 3000 instrument (Biacore Inc, Piscataway, N.J.), employing a high-capacity LMWH surface created on a commercially available streptavidin-coated chip via treatment with biotinylated LMWH.
In SPR experiments, the interaction of the peptides with a LMWH-modified SA chip surface was determined under conditions described in the experimental section.

B1: PF4ZIP (peptide)
peptide: CGGRMKQLEDKVKKLLKKNYHLENEVARLKKLVG-NH2
modifications: also: coiled-coil dimer
notes: also called coiled-coil PF4ZIP
As for B1, the binding result with streptavidin (SA chip) is on record as “no binding”. Binding in data set [1] was put at a Kd of 3.48 µM.

Source of the values: US20110033543A1 (UNIVERSITY OF DELAWARE, published 2011).
